{
  "source": "patent US6680177B2",
  "about": "“Low molecular weight heparin assay, system and reagent therefor” (Cardiovascular Diagnostics, Inc., priority 2001, dated 2004)",
  "molecules": {"B1": {"name": "Abciximab (antibody, chains of the INN, looked up, V domains shown)", "VH": "EVQLQQSGTVLARPGASVKMSCEASGYTFTNYWMHWVKQRPGQGLEWIGAIYPGNSDTSYIQKFKGKAKLTAVTSTTSVYMELSSLTNEDSAVYYCTLYDGYYVFAYWGQGTLVTVSA", "VL": "EIVLTQSPVTLSVTPGDSVSLSCRASRDISNNLHWFQQTSHESPRLLIKYASQSMSGIPSRFSGSGSGTDFTLSINSVETEDFGMYFCQQTNSWPYTFGGGTKLEIK", "modifications": "Fab", "notes": "antiplatelet agent tested as interferent"}, "B2": {"name": "Alteplase (protein, UniProt P00750 36-562, looked up)", "Tissue-type plasminogen …": "SYQVICRDEKTQMIYQQHQSWLRPVLRSNRVEYCWCNSGRAQCHSVPVKSCSEPRCFNGGTCQQALYFSDFVCQCPEGFAGKCCEIDTRATCYEDQGISYRGTWSTAESGAECTNWNSSALAQKPYSGRRPDAIRLGLGNHNYCRNPDRDSKPWCYVFKAGKYSSEFCSTPACSEGNSDCYFGNGSAYRGTHSLTESGASCLPWNSMILIGKVYTAQNPSAQALGLGKHNYCRNPDGDAKPWCHVLKNRRLTWEYCDVPSCSTCGLRQYSQPQFRIKGGLFADIASHPWQAAIFAKHRRSPGERFLCGGILISSCWILSAAHCFQERFPPHHLTVILGRTYRVVPGEEEQKFEVEKYIVHKEFDDDTYDNDIALLQLKSDSSRCAQESSVVRTVCLPPADLQLPDWTECELSGYGKHEALSPFYSERLKEAHVRLYPSSRCTSQHLLNRTVTDNMLCAGDTRSGGPQANLHDACQGDSGGPLVCLNDGRMTLVGIISWGLGCGQKDVPGVYTKVTNYLDWIRDNMRP", "modifications": "alteplase", "notes": "fibrinolytic agent tested as interferent"}, "B3": {"name": "Tenecteplase (protein, UniProt P00750 36-562, looked up, variant T103N N117Q K296A H297A R298A R299A)", "Tissue-type plasminogen …": "B2 Tissue-type plasminogen … with T103N, N117Q, K296A, H297A, R298A, R299A", "modifications": "tenecteplase", "notes": "as for B2"}},
  "tested_on": "citrated whole blood (CWB)",
  "assay": "Interference testing for Rapidpoint ENOX test in citrated whole blood",
  "format": "biochemical",
  "settings": "for EFFECT on ENOX test: CWB; for sensitivity of the ENOX test to the agent: in vitro, citrated whole blood",
  "note": "Substitutions are numbered along the chain they refer to.",
  "data": [
    {"molecule": "B1", "values": [
      {"measurement": "EFFECT on ENOX test", "setting": "0-3600 ng/ml", "value": "No effect at 0-3600 ng/ml"},
      {"measurement": "sensitivity of the ENOX test to the agent", "value": "insensitive"}
    ]},
    {"molecule": "B2", "values": [
      {"measurement": "EFFECT on ENOX test", "setting": "1000-3200 ng/ml", "value": "No effect at 1000-3200 ng/ml"},
      {"measurement": "sensitivity of the ENOX test to the agent", "value": "insensitive"}
    ]},
    {"molecule": "B3", "values": [
      {"measurement": "EFFECT on ENOX test", "setting": "0-10,000 ng/ml", "value": "No effect at 0-10,000 ng/ml"},
      {"measurement": "sensitivity of the ENOX test to the agent", "value": "insensitive"}
    ]}
  ]
}
